Reference: article PMC3130059

Legend:
[1] = biological target: dansyl-calmodulin (dansyl-CaM) (bovine) (UniProt P62157); test: other fluorescence titration; 1 µM dansyl-CaM titrated with Ras protein (GppNHp form); […]; 20 mM HEPES pH 7.4, 150 mM NaCl, 1 mM CaCl2, 1 mM MgCl2; excitation 335 nm, emission at 480 nm
[2] = biological target: H-Ras-(KKKKKK), chimeric H-Ras with the polylysine region of K-RasB at 175-180 (UniProt P01112); test: ITC; 0.3–0.8 mM CaM in the syringe injected into 20–40 µM Ras protein (GppNHp form) in the cell; […]; 20 mM HEPES pH 7.4, 150 mM NaCl, 1 mM CaCl2, 1 mM MgCl2; single set of identical sites model
[3] = biological target: K-RasB-K175A (UniProt P01116); test: as above
[4] = biological target: farnesylated K-RasB (UniProt P01116); test: as above
[5] = biological target: farnesylated K-RasB-K175A (UniProt P01116); test: as above
[6] = biological target: full-length K-RasB (unprocessed) (UniProt P01116); test: as above

Row | Kd [1] [µM] | Kd [2] [µM] | dH [2] [kcal/mol] | stoichiometry N [2] | dH [3] [kcal/mol] | stoichiometry N [3] | dH [4] [kcal/mol] | stoichiometry N [4] | dH [5] [kcal/mol] | stoichiometry N [5] | dH [6] [kcal/mol] | stoichiometry N [6] | Substance
1 | 2.53 |  |  |  |  |  |  |  |  |  |  |  | H-Ras-(KKKKKK), chimeric H-Ras with the polylysine region of K-RasB at 175-180 (from UniProt P01112 1-189) (natural protein)
2 |  | 3.89 | 6.16 | 0.903 | 2.48 | 0.995 | 3.33 | 1.13 | 1.01 | 0.972 | 3.63 | 0.924 | calmodulin (CaM), Ca^2+-saturated, from bovine brain (from UniProt P62157 1-149) (natural protein)
